PMC3572265 (Pediatric diabetes, 2012)

What was measured:
[1] = plasma insulin pharmacokinetics during euglycemic clamp; type: in vivo, human; conditions: Without InsuPatch activation, 0.2 unit/kg s.c. bolus, mean±SEM
[2] = tested on: adolescents with type 1 diabetes; assay: euglycemic clamp, pharmacodynamics; type: in vivo, human; conditions: difference with vs without InsuPatch activation; 0.2 u/kg bolus

For aspart insulin, the “time to reach maximum increments in plasma insulin” value [1] was 67 ± 10 min and the “TGIRmax earlier with IP activation than without” value [2] was 35 min.
